US20260176358A1 (JIANGSU HENGRUI PHARMACEUTICALS, published 2026)

What was measured:
rat CGRP = target: T1, rat CGRP (rat, UniProt P01256 83-119); assay: SPR, Biacore 8K, antibody captured on Protein A chip, 1:1 model
T1 peptide (looked up): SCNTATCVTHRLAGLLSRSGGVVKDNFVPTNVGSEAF
Method: A Protein A biosensor chip was used to affinity-capture IgG, and a molecule sample was then allowed to flow through the surface of the chip. Reaction signals were detected in real time using a Biacore 8K system to obtain association and dissociation curves. After the dissociation in each experimental cycle was complete, the biosensor chip was washed and regenerated 3 times with 50 mM NaOH. Data fitting was performed using a 1:1 model.

PACAP27 = target: T2, PACAP27 (UniProt P18509 132-158, biotinylated in the ELISAs); assay: ELISA, antibody on coated anti-human Fc, biotinylated peptide
T2 peptide (looked up): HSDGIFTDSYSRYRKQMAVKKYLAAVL
Method: (§1) Plates were coated with 1 μg/mL anti-human Fc and blocked, and the antibodies, serially diluted, were added. […] The plates were incubated for 1 h and washed, and a horseradish peroxidase-labeled streptavidin secondary antibody was then added. After incubation, color development was performed.

PACAP38 [1] = target: T3, PACAP38 (UniProt P18509 132-169, biotinylated in the ELISAs); assay: as above
T3 peptide (looked up): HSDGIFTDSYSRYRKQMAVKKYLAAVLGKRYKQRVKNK
Method: as §1

human CGRP = target: T4, human CGRP (human, UniProt P06881 83-119); assay: SPR, Biacore 8K, 25 C, biotinylated antibody on SA chip, 1:1 model
T4 peptide (looked up): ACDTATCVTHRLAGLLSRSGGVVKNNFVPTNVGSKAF
Method: First, the test antibodies ([…] for the mAbs and 4 μg/mL for the diabodies), biotinylated (indicated by Biotin-), were each coupled onto an SA biosensor chip. Then samples of the antigen human CGRP were sequentially injected in ascending order for 180 s, followed by dissociation. After the test was finished, fitting was performed using a 1:1 binding model.

CGRP = assay: cell-based or functional assay
PACAP38 [2] = target: T3, PACAP38; assay: cell-based or functional assay

B1: CP-3 (bispecific antibody, human IgG1, kappa)
heavy 1: EVQLVESGGGLVQPGGSLRLSCAASGFAFNNYDMSWVRQAPGKGLEWVATITGGGSYTWYPDSVKGRFTISRDNAKNSLYLQMNSLRAEDTAVYYCARLTGYDQAGAMDYWGQGTTVTVSSASTKGPSVFPLAPSSKSTSGGTAALGCLVKDYFPEPVTVSWNSGALTSGVHTFPAVLQSSGLYSLSSVVTVPSSSLGTQTYICNVNHKPSNTKVDKKVEPKSCDKTHTCPPCPAPELLGGPSVFLFPPKPKDTLYITREPEVTCVVVDVSHEDPEVKFNWYVDGVEVHNAKTKPREEQYNSTYRVVSVLTVLHQDWLNGKEYKCKVSNKALPAPIEKTISKAKGQPREPQVYTLPPCRDELTKNQVSLWCLVKGFYPSDIAVEWESNGQPENNYKTTPPVLDSDGSFFLYSKLTVDKSRWQQGNVFSCSVMHEALHNHYTQKSLSLSPGK
light 1: DIVLTQSPDSLAVSLGERATINCKASQSVDYDGDSYMTWYQQKPGQPPKLLIYAASHLDSGIPDRFSGSGSGTDFTLTISSLQAEDVAVYYCQQSNEDPWTFGGGTKVEIKRTVAAPSVFIFPPSDEQLKSGTASVVCLLNNFYPREAKVQWKVDNALQSGNSQESVTEQDSKDSTYSLSSTLTLSKADYEKHKVYACEVTHQGLSSPVTKSFNRGEC
heavy 2: EVQLVQSGAEVKKPGASVKVSCKASGYTFTDYYMNWVRQAPGQRLEWMGDINPNTGVTTYNQKFKGRVTITVDKSASTAYMELSSLRSEDTAVYYCASIIIVPDYFDYWGQGTTVTVSSGGGGSGIPPKIECLPIDISIDEGKVLTVASAFTGEPTPEVTWSTGGRKIHSQEQGRFHIENTDDSTTLTIKDVQKQDGGLYTLTLRNEFGSDSATVNIHIRSIDKTHTCPPCPAPELLGGPSVFLFPPKPKDTLYITREPEVTCVVVDVSHEDPEVKFNWYVDGVEVHNAKTKPREEQYNSTYRVVSVLTVLHQDWLNGKEYKCKVSNKALPAPIEKTISKAKGQPREPQVCTLPPSRDELTKNQVSLSCAVKGFYPSDIAVEWESNGQPENNYKTTPPVLDSDGSFFLVSKLTVDKSRWQQGNVFSCSVMHEALHNHYTQKSLSLSPGK
light 2: DIQMTQSPSSVSASVGDRVTITCKASQNVGSNVAWYQQKPGKSPKALIYSASYRYSGVPSRFSGSGSGTDFTLTISSLQPEDFATYYCQQYNSYPYTFGGGTKVEIKGGGGSSGAPRFLTRPKASVVSVGKDATLSCQIVGNPFPQVSWEKDKQPVTAGVRFRLAQDGDLYRLKILDLQLSDSGQYVCRARNAHGEAFACLGLQVDAEA
notes: Format 1+1, anti-PACAP Fab (P14H2L3) and anti-CGRP Titin/Obscurin Fab (C28H6L1), knob-into-hole IgG1 (YTE) Fc; also called Biotin-CP-3
Kd (rat CGRP): 0.0897 nM
koff (rat CGRP): 0.000301 s⁻¹
kon (rat CGRP): 3.35e+06 M⁻¹ s⁻¹
EC50 (PACAP27): 0.33 nM
EC50 (PACAP38 [1]): 0.22 nM
Kd (human CGRP): 0.00764 nM
koff (human CGRP): 3.31e-05 s⁻¹
kon (human CGRP): 4.34e+06 M⁻¹ s⁻¹
IC50, inhibition of cAMP production in SK-N-MC cells (CGRP): 5.79 nM
IC50, inhibition of cAMP production in SH-SY5Y cells (PACAP38 [2]): 11 nM
